Values quoted from earlier work, collected in article PMC4799752.

Target: transferrin receptor 2 (Homo sapiens) (UniProt Q9UP52)
UniProt Q9UP52, sequence (Q9UP52 whole entry): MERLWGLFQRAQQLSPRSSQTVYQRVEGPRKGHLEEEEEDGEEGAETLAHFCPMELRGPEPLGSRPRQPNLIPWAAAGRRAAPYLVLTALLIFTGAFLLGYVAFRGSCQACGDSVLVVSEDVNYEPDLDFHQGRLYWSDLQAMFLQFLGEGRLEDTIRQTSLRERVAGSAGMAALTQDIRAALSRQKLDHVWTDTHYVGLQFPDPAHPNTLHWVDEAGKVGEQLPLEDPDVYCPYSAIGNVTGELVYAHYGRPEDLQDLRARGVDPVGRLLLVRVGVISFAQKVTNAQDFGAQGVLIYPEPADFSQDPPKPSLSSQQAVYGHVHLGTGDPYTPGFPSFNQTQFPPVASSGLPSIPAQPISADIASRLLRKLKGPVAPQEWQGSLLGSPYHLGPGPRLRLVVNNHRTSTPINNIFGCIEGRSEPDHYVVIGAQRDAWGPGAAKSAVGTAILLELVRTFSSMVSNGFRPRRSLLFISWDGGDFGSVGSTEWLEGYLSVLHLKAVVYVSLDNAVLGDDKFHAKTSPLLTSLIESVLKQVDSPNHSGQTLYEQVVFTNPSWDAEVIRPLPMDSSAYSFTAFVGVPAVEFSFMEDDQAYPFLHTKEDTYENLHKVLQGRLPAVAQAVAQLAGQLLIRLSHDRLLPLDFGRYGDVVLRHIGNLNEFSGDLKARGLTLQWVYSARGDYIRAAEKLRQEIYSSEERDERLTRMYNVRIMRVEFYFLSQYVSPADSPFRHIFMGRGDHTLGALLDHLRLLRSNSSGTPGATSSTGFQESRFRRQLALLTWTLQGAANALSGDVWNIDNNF

transferrin, sequence (P02787 20-698): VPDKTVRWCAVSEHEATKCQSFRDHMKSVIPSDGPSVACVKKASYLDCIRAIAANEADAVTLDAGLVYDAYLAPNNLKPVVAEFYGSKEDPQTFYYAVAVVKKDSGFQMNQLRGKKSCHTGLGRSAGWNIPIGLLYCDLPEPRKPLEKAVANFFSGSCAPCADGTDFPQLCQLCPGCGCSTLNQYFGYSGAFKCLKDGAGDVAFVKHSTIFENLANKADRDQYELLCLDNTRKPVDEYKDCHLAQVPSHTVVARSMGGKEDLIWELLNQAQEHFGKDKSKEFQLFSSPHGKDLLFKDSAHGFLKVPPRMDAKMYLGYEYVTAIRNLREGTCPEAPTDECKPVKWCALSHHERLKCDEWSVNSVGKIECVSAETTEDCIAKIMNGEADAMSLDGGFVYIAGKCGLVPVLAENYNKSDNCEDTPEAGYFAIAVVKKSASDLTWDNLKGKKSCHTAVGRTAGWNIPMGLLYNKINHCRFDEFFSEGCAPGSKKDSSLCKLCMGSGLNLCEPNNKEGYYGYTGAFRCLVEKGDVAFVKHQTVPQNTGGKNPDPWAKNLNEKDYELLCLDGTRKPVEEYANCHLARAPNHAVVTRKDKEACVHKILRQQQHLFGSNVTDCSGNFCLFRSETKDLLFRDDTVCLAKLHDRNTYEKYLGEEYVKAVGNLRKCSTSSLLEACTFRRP

For transferrin (from UniProt P02787), the Kd is listed as 30 nM.
